Results reported in US20180282373.

Biological target: purified recombinant full-length WDR5, P61964

| Protein | core complex methyltransferase activity, H3K4me1 and H3K4me2 peptides, mutant against wild type | core complex methyltransferase activity, H3K4me0 peptide, mutant against wild type |
| --- | --- | --- |
| GST-tagged SETd1B Win-SET domain, Setd1B(1727-1966), R1748A (protein) LSSAKKKKRDDGIREHVTGCAASEGFYTIDKKDKLRYLNSSRASTDEPPADTQGMSIPAQPHASTRAGSERRSEQRRLLSSFTGSCDSDLLKFNQLKFRKKKLKFCKSHIHDWGLFAMEPIAADEMVIEYVGQNIRQVIADMREKRYEDEGIGSSYMFRVDHDTIIDATKCGNFARFINHSCNPNCYAKVITVESQKKIVIYSKQHINVNEEITYDYKFPIEDVKIPCLCGSENCRGTLN | showed similar amounts of activity compared to that of their wild-type counterparts | – |
| GST-tagged MLL3 Win-SET domain, MLL3(4689-4911), R4710A (protein) FRYGRNPLMELPLAVNPTGCAASEPKMSAHVKRFVLRPHTLNSTSTSKSFQSTVTGELNAPYSKQFVHSKSSQYRKMKTEWKSNVYLARSRIQGLGLYAARDIEKHTMVIEYIGTIIRNEVANRKEKLYESQNRGVYMFRMDNDHVIDATLTGGPARYINHSCAPNCVAEVVTFERGHKIIISSSRRIQKGEELCYDYKFDFEDDQHKIPCHCGAVNCRKWMN | – | approximately 2-fold more activity than the wild-type MLL3 core complex |
